{"source": "patent US8586031B2", "about": "“Method of reusing rinse water from disinfecting packages with peracid and catalase” (Ecolab USA Inc., priority 2008, dated 2013)", "molecules": {"B1": {"name": "Bovine Catalase: crystaline bovine liver catalase, Sigma Aldrich (protein, UniProt P00432 2-527, looked up)", "Catalase": "ADNRDPASDQMKHWKEQRAAQKPDVLTTGGGNPVGDKLNSLTVGPRGPLLVQDVVFTDEMAHFDRERIPERVVHAKGAGAFGYFEVTHDITRYSKAKVFEHIGKRTPIAVRFSTVAGESGSADTVRDPRGFAVKFYTEDGNWDLVGNNTPIFFIRDALLFPSFIHSQKRNPQTHLKDPDMVWDFWSLRPESLHQVSFLFSDRGIPDGHRHMNGYGSHTFKLVNANGEAVYCKFHYKTDQGIKNLSVEDAARLAHEDPDYGLRDLFNAIATGNYPSWTLYIQVMTFSEAEIFPFNPFDLTKVWPHGDYPLIPVGKLVLNRNPVNYFAEVEQLAFDPSNMPPGIEPSPDKMLQGRLFAYPDTHRHRLGPNYLQIPVNCPYRARVANYQRDGPMCMMDNQGGAPNYYPNSFSAPEHQPSALEHRTHFSGDVQRFNSANDDNVTQVRTFYLKVLNEEQRKRLCENIAGHLKDAQLFIQKKAVKNFSDVHPEYGSRIQALLDKYNEEKPKNAVHTYVQHGSHLSAREKANL"}}, "assay": "Decomposition of hydrogen peroxide by catalase in about 20,000 ppm acetic acid and 500-800 ppm hydrogen peroxide at 60° C., thiosulfate titration", "assay_type": "biochemical", "method": "Example 1 compared the ability to various catalase enzymes at 100 ppm concentration to decompose hydrogen peroxide. For this example, an aliquot of a stock solution of catalase was added to 1000 ml of a solution containing about 20,000 ppm acetic acid and 500-800 ppm of hydrogen peroxide at 60° C. The catalase addition was done at a rate that produced an enzyme concentration of 100 ppm in the 1000 ml solution The concentration of the hydrogen peroxide was measured at time zero and at 5, 10, and 15 minutes. The concentration of hydrogen peroxide was measured via titration of a 10 ml aliquot of solution including 1-2 ml of […], 1-2 ml concentrated sulfuric acid, 4-5 drops of an oxygen catalyst (saturated solution of Ammonium Molybdate) and a few drops of a starch solution. The titrant was 0.1 N Sodium thio sulfate. The solution was titrated to a colorless endpoint and the peroxide concentration was calculated via the following calculation:\nExample 2 compared the ability to various catalase enzymes at 20 ppm concentration to decompose hydrogen peroxide. For this example, 20 ppm of catalase enzyme was diluted in 20,000 ppm acetic acid and 500-800 ppm of hydrogen peroxide at 60° C. The concentration of the hydrogen peroxide was measured at time zero and at 5, 10, and 15 minutes in the same manner as outlined in example 1.", "data": [{"molecule": "B1", "values": [{"measurement": "decrease of the concentration of hydrogen peroxide", "setting": "20 ppm catalase", "value": "did not measurably decrease"}, {"measurement": "Hydrogen Peroxide Concentration", "setting": "20 ppm catalase, 0 minutes", "value": 600, "unit": "ppm"}, {"measurement": "Hydrogen Peroxide Concentration", "setting": "20 ppm catalase, 5 minutes", "value": 600, "unit": "ppm"}, {"measurement": "Hydrogen Peroxide Concentration", "setting": "20 ppm catalase, 10 minutes", "value": 600, "unit": "ppm"}, {"measurement": "Hydrogen Peroxide Concentration", "setting": "20 ppm catalase, 15 minutes", "value": 600, "unit": "ppm"}, {"measurement": "decreased the concentration of hydrogen peroxide by", "setting": "100 ppm catalase, 0 to 15 minutes", "value": 28.9, "unit": "ppm"}, {"measurement": "Hydrogen Peroxide Concentration", "setting": "100 ppm catalase, 0 minutes", "value": 581.4, "unit": "ppm"}, {"measurement": "Hydrogen Peroxide Concentration", "setting": "100 ppm catalase, 5 minutes", "value": 564.4, "unit": "ppm"}, {"measurement": "Hydrogen Peroxide Concentration", "setting": "100 ppm catalase, 10 minutes", "value": 561, "unit": "ppm"}, {"measurement": "Hydrogen Peroxide Concentration", "setting": "100 ppm catalase, 15 minutes", "value": 552.5, "unit": "ppm"}]}]}
